Data published in patent publication US20150266957A1.

Key:
Assay in all cases: cell-based or functional assay
human PROKR1 (human) = human PROKR1 (human) (UniProt Q8TCW9)
[1] = target: cynomolgus monkey PROKR1 (cynomolgus monkey (Macaca fascicularis)) (UniProt G7PMD0)
[2] = target: mouse PROKR1 (mouse (Mus musculus)) (UniProt Q9JKL1)
[3] = target: rat PROKR1 (rat (Rattus norvegicus)) (UniProt Q8R416)
rat PROKR1 (rat (Rattus norvegicus)), sequence (Q8R416 whole entry): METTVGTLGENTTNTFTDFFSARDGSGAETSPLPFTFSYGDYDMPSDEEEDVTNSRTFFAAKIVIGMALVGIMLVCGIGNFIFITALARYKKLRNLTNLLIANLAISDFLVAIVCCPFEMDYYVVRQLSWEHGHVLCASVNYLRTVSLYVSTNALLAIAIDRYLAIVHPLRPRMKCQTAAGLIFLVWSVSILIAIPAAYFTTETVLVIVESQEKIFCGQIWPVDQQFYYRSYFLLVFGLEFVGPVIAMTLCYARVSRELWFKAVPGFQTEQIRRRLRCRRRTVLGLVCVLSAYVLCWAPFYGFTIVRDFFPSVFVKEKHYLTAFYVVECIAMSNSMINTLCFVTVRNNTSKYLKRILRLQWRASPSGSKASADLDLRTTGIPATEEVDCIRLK

mouse PROKR1 (mouse (Mus musculus)), sequence (Q9JKL1 whole entry): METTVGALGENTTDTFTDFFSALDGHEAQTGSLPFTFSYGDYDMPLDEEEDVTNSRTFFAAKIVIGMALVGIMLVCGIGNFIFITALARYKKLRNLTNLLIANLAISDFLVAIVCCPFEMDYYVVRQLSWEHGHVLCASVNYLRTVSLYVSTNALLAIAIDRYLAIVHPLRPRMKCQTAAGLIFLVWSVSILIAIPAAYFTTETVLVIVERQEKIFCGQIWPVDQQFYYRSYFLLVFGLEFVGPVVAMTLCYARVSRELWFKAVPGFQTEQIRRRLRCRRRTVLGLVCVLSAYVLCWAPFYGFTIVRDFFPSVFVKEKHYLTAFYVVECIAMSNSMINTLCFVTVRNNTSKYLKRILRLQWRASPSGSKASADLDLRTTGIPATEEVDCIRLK
human PROKR1 (human), sequence (Q8TCW9 whole entry): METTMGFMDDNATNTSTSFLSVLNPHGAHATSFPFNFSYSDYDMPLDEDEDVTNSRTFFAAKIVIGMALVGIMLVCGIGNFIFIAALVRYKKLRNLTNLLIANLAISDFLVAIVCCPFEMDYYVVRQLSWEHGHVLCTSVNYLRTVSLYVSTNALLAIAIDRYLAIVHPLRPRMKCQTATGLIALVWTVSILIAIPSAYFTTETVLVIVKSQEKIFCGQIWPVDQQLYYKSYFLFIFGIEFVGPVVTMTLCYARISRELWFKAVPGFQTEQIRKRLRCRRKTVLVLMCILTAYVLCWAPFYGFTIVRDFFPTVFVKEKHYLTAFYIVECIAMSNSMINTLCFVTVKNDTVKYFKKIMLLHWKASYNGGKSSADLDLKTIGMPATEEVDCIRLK
cynomolgus monkey PROKR1 (cynomolgus monkey (Macaca fascicularis)), sequence (G7PMD0 entry or part of it): as the sequence (Q8TCW9 whole entry) above, with V22A, T31A, S40G, I82V, V135I, K210R, V246F, D348N, V350A counted along it

| EC50 (nM), calcium mobilization, 293/hPROKR1, Experiment 1 (human PROKR1 (human)) | EC50 (nM), calcium mobilization, 293/hPROKR1, Experiment 3 (human PROKR1 (human)) | EC50 (nM), calcium mobilization, 293/mfPROKR1, Experiment 3 [1] | Ligand EC50 (nM), calcium flux, CHO/mPROKR1 (induced) [2] | Ligand EC50 (nM), calcium flux, CHO/mPROKR1 (non-induced) [2] | EC50, calcium flux, 293/rPROKR1, no antibody [3] | EC50 (nM), calcium mobilization, 293/hPROKR1, Experiment 2 (human PROKR1 (human)) | EC50 (nM), calcium mobilization, 293/mfPROKR1, Experiment 1 [1] | EC50, calcium flux, 293/mPROKR1, no antibody [2] | Binder |
| --- | --- | --- | --- | --- | --- | --- | --- | --- | --- |
| 30.7 nM | 0.6 nM | 0.1 nM | 9.6 nM | 0.8 nM |  |  |  |  | human prokineticin 2 (ligand, UniProt Q9HC23-2 28-108, looked up) AVITGACDKDSQCGGGMCCAVSIWVKSIRICTPMGKLGDSCHPLTRKVPFFGRRMHHTCPCLPGLACLRTSFNRFICLAQK |
| 6.2 nM | 2.2 nM | 5 nM | 1.5 nM | 8.3 nM | 0.7 nM | 14.3 nM | 69 nM | 0.9 nM | human prokineticin 1 (ligand, UniProt P58294 20-105, looked up) AVITGACERDVQCGAGTCCAISLWLRGLRMCTPLGREGEECHPGSHKVPFFRKRKHHTCPCLPNLLCSRFPDGRYRCSMDLKNINF |
